US20150218277A1 (REGENTS OF THE UNIVERSITY OF MICHIGAN, published 2015)
Ends that are not written are not given here.

Each binder was assayed against Heat Shock Protein 90 (HSP90), endogenous, in human cell lines (human, UniProt P07900 2-732) (assay: cell-based or functional assay).

In order of rising “clonogenic survival of UMSCC1 cells (Survival Fraction), peptide delivered with Chariot” value:
1. SVDNPHVC (not fully specified) [Peptide 2 SVDNPHVC (Disruptin)]  0.77 survival fraction
2. RLLGIC [Peptide 3 RLLGIC]  0.85 survival fraction
3. DEAYVMA [Peptide 1 DEAYVMA]  0.93 survival fraction
4. SVGNPHVC [Peptide 7 SVGNPHVC]  0.97 survival fraction
5. GVGSPYVS [Peptide 4 GVGSPYVS]  1 survival fraction
6. NHVPSDVC (not fully specified) [Peptide 8 NHVPSDVC (scrambled peptide)]  1 survival fraction
7. DEAYVMAGVGSPYVSRLLGIC [Peptide 6 DEAYVMAGVGSPYVSRLLGIC]  1 survival fraction
